B1: Twister Ribozyme (parent)
chain: AACACUGCCAAUGCCGGUCCCAAGCCCGGAUAAAAGUGGAGGGGGCGG

Variants of: B1
Assay: self-cleavage, relative activity (ratio to wild type); higher = more cleavage; co-transcriptional
G13U C19G showed a self-cleavage of 0.0472. With U37A G41U the self-cleavage was 0.115. For A1G A40G, the self-cleavage was 0.227. C15U C20G gave a self-cleavage of 0.135. U6G C14G showed a self-cleavage of 0.0983. Work on C15A A40G yielded a self-cleavage of 0.107. In the case of C21U G44C, the self-cleavage is reported as 0.0722. Work on G7A C14A yielded a self-cleavage of 0.371. With G7A G16A the self-cleavage was 0.226. With C25G G44A the self-cleavage was 0.514. C8A A32U gave a self-cleavage of 0.275. Work on A1G U6C yielded a self-cleavage of 0.202. With A33G A34U the self-cleavage was 0.461. In the case of C9G U37C, the self-cleavage is reported as 0.156. Work on C3U C5G yielded a self-cleavage of 0.105. In the case of A4C G44C, the self-cleavage is reported as 0.0939. In the case of C9G C46A, the self-cleavage is reported as 0.376. With A23G G36U the self-cleavage was 0.0865. With U6G C9A the self-cleavage was 0.279. For G43A G45C, the self-cleavage was 0.434. Work on C20G C25A yielded a self-cleavage of 0.0525. With A32G G47C the self-cleavage was 0.473. In the case of G17U C25A, the self-cleavage is reported as 0.0904. In the case of G13C G29C, the self-cleavage is reported as 0.477. A4G G36U showed a self-cleavage of 0.164. Variant G7U A33C has a self-cleavage of 0.0647. Variant U6A G16C has a self-cleavage of 0.135. With C21U A32U the self-cleavage was 0.127. With U12C C26G the self-cleavage was 0.179. C27A C46G gave a self-cleavage of 0.466. Work on G16C A23U yielded a self-cleavage of 0.0704. A23C G24U gave a self-cleavage of 0.0714. In the case of C15G A33U, the self-cleavage is reported as 0.121. A33C G39A showed a self-cleavage of 0.438. Work on A32U G42C yielded a self-cleavage of 0.437. Variant G24A C25U has a self-cleavage of 0.0836. With G41C G44C the self-cleavage was 0.187. Variant C3A C46A has a self-cleavage of 0.2. C5A A11U showed a self-cleavage of 0.351. Variant A2G G47A has a self-cleavage of 0.232. In the case of A1C G13U, the self-cleavage is reported as 0.207. C19A A32C showed a self-cleavage of 0.201. Work on A2G G16C yielded a self-cleavage of 0.119. Work on U31A A34G yielded a self-cleavage of 0.853. U6G G38C showed a self-cleavage of 0.168. In the case of C19U G41U, the self-cleavage is reported as 0.125. For G42A G48C, the self-cleavage was 0.624. A4C C20U gave a self-cleavage of 0.0732. Work on C20U G29C yielded a self-cleavage of 0.305. Variant C20U G29U has a self-cleavage of 0.921. Work on A11U A33G yielded a self-cleavage of 0.839. With A22U G38A the self-cleavage was 0.843. For A2U G48A, the self-cleavage was 0.353. In the case of G38C G48A, the self-cleavage is reported as 0.974. With A10C C15A the self-cleavage was 0.493. U12A G45C gave a self-cleavage of 0.643. In the case of C8A C9G, the self-cleavage is reported as 0.122. Variant U12G G47C has a self-cleavage of 0.528. G41C G43U showed a self-cleavage of 0.153. C9U G44C showed a self-cleavage of 0.677. In the case of C9U G44A, the self-cleavage is reported as 0.72. For G29A G43A, the self-cleavage was 0.195. With G44A G47A the self-cleavage was 0.867. For C8U C20A, the self-cleavage was 0.0588. For C21U G24A, the self-cleavage was 0.102. Work on C5G C8G yielded a self-cleavage of 0.0701. Variant A34U G36U has a self-cleavage of 0.124. In the case of C20U G47U, the self-cleavage is reported as 0.564. C25A G45U gave a self-cleavage of 0.0929. Work on G28U A34C yielded a self-cleavage of 0.205. For C3G A4U, the self-cleavage was 0.13. For A33G G48A, the self-cleavage was 0.856. Variant G16U A23G has a self-cleavage of 0.0652. With G17C C25G the self-cleavage was 0.0833. Variant G36C A40U has a self-cleavage of 0.149. Work on A30G A40G yielded a self-cleavage of 0.187. Work on G29U G43A yielded a self-cleavage of 0.23. G39C G41A showed a self-cleavage of 0.0895. C9G A32G gave a self-cleavage of 0.731. A2C G45A showed a self-cleavage of 0.0666. Work on A23U G42U yielded a self-cleavage of 0.0934. G13U G48A gave a self-cleavage of 0.309. For C14U A35C, the self-cleavage was 1.05. For A11U G43C, the self-cleavage was 0.234.

From the RNAGym collection of RNA variant scans (doi:10.7554/elife.80360)
